B1: STX11 (parent)
chain: FQRAMHDYNQAEMKQRDNCKIRIQ
B2: CDC14A (parent)
chain: LWVQGDIFRSKLKNRPSSEGSINK

Variants of: B1
Assay: protein stability index of a GFP-peptide fusion (GPS, HEK-293T) (PSI 1-6); higher = more stable
Conditions: c terminus: a fixed tail appended
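Also: lentivirally expressed fusions sorted by FACS into six bins by GFP to DsRed ratio, PSI derived from sequencing read proportions per bin multiplied by bin number.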

Variant	protein stability index
FQRAMHDYNQAEMKQRDNCKHRIQ [I21H]	2.76
FQRAMHDYNQAEMKQRDNCKGRIQ [I21G]	3.08
FQRAMHDYNQAEMKQRDNCKERIQ [I21E]	2.92
FQRAMHDYNQAEMKQRDNCKDRIQ [I21D]	3.86
FQRAMHDYNQAEMKQRRNCKIRIQ [D17R]	1.82
FQRAMHDYNQAEMKQRMNCKIRIQ [D17M]	2
FQRAMHDYNQAEMKQRKNCKIRIQ [D17K]	1.98
FQRAMHDYNQAEMKQRCNCKIRIQ [D17C]	2.09
FQRAMHDYNQAEMKQRENCKIRIQ [D17E]	2.81
FQRAMHDYNQAEMKQRQNCKIRIQ [D17Q]	2.63
FQRAMHDYNQAEMKQRPNCKIRIQ [D17P]	2.97
FQRAMHDYNQAEMKQRFNCKIRIQ [D17F]	1.16
FQRAMHDYNQAEMKQRYNCKIRIQ [D17Y]	1.89
FQRAMHDYNQAEMKQRLNCKIRIQ [D17L]	2.1
FQRAMHDYNQAEMKQRWNCKIRIQ [D17W]	1.68
FQRAMHDYNQAEMKQRANCKIRIQ [D17A]	2.28
FQRAMHDYNQAEMKQRGNCKIRIQ [D17G]	2.36
FQRAMHDYNQAEMKQRSNCKIRIQ [D17S]	1.78
FQRAMHDYNQAEMKQRTNCKIRIQ [D17T]	1.98
FQRAMHDYNQAEMKQRHNCKIRIQ [D17H]	2.15
FQRAMHDYNQAEMKQRNNCKIRIQ [D17N]	2.28

Variant	protein stability index
FQRAMHDYNQAEMKQRVNCKIRIQ [D17V]	2.73
FQRAMHDYNQAEMKQRINCKIRIQ [D17I]	1.8
FQRAMHDYNQAEMKQRDNCKIPIQ [R22P]	3.02
FQRAMHDYNQAEMKQRDNCKIVIQ [R22V]	2.6
FQRAMHDYNQAEMKQRDNCKIEIQ [R22E]	2.67
FQRAMHDYNQAEMKQRDNCKIAIQ [R22A]	2.61
FQRAMHDYNQAEMKQRDNCKIHIQ [R22H]	2.49
FQRAMHDYNQAEMKQRDNCKIFIQ [R22F]	2.04
FQRAMHDYNQAEMKQRDNCKICIQ [R22C]	2.37
FQRAMHDYNQAEMKQRDNCKISIQ [R22S]	3.44
FQRAMHDYNQAEMKQRDNCKILIQ [R22L]	2.53
FQRAMHDYNQAEMKQRDNCKITIQ [R22T]	2.54
FQRAMHDYNQAEMKQRDNCKIGIQ [R22G]	2.57
FQRAMHDYNQAEMKQRDNCKIMIQ [R22M]	2.8
FQRAMHDYNQAEMKQRDNCKIIIQ [R22I]	2.58
FQRAMHDYNQAEMKQRDNCKINIQ [R22N]	2.61
FQRAMHDYNQAEMKQRDNCKIQIQ [R22Q]	2.9
FQRAMHDYNQAEMKQRDNCKIDIQ [R22D]	3.13
FQRAMHDYNQAEMKQRDNCKIWIQ [R22W]	1.74
FQRAMHDYNQAEMKQRDNCKIKIQ [R22K]	2.42
FQRAMHDYNQAEMKQRDNCKIYIQ [R22Y]	2.59

Variant	protein stability index
FQRAMHDYNQAEMKQRDNCRIRIQ [K20R]	2.37
FQRAMHDYNQAEMKQRDNCNIRIQ [K20N]	2.83
FQRAMHDYNQAEMKQRDNCEIRIQ [K20E]	2.74
FQRAMHDYNQAEMKQRDNCQIRIQ [K20Q]	2.75
FQRAMHDYNQAEMKQRDNCMIRIQ [K20M]	2.46
FQRAMHDYNQAEMKQRDNCYIRIQ [K20Y]	1.41
FQRAMHDYNQAEMKQRDNCHIRIQ [K20H]	3.21
FQRAMHDYNQAEMKQRDNCPIRIQ [K20P]	2.37
FQRAMHDYNQAEMKQRDNCSIRIQ [K20S]	3.15
FQRAMHDYNQAEMKQRDNCVIRIQ [K20V]	2.14
FQRAMHDYNQAEMKQRDNCIIRIQ [K20I]	1.3
FQRAMHDYNQAEMKQRDNCAIRIQ [K20A]	2.32
FQRAMHDYNQAEMKQRDNCGIRIQ [K20G]	2.35
FQRAMHDYNQAEMKQRDNCFIRIQ [K20F]	1.69
FQRAMHDYNQAEMKQRDNCWIRIQ [K20W]	1.6
FQRAMHDYNQAEMKQRDNCTIRIQ [K20T]	2.47
FQRAMHDYNQAEMKQRDNCLIRIQ [K20L]	3.26
FQRAMHDYNQAEMKQRDNCDIRIQ [K20D]	3.11
FQRAMHDYNQAEMKQRDNCCIRIQ [K20C]	2.23

Variants of: B2
Assay: as above
Conditions: c terminus: a fixed tail appended

Variant	protein stability index
FWVQGDIFRSKLKNRPSSEGSINK [L1F]	1.75
NWVQGDIFRSKLKNRPSSEGSINK [L1N]	4.3
YWVQGDIFRSKLKNRPSSEGSINK [L1Y]	2.43
QWVQGDIFRSKLKNRPSSEGSINK [L1Q]	2.79
PWVQGDIFRSKLKNRPSSEGSINK [L1P]	3.75
KWVQGDIFRSKLKNRPSSEGSINK [L1K]	3.49
RWVQGDIFRSKLKNRPSSEGSINK [L1R]	4.17
HWVQGDIFRSKLKNRPSSEGSINK [L1H]	3.37
DWVQGDIFRSKLKNRPSSEGSINK [L1D]	4.57
MWVQGDIFRSKLKNRPSSEGSINK [L1M]	2.79
AWVQGDIFRSKLKNRPSSEGSINK [L1A]	3.37
TWVQGDIFRSKLKNRPSSEGSINK [L1T]	4.24
IWVQGDIFRSKLKNRPSSEGSINK [L1I]	2.17
EWVQGDIFRSKLKNRPSSEGSINK [L1E]	4.43
VWVQGDIFRSKLKNRPSSEGSINK [L1V]	2.2
CWVQGDIFRSKLKNRPSSEGSINK [L1C]	3.69
WWVQGDIFRSKLKNRPSSEGSINK [L1W]	2.3

Variant	protein stability index
GWVQGDIFRSKLKNRPSSEGSINK [L1G]	3.03
SWVQGDIFRSKLKNRPSSEGSINK [L1S]	4.05
LIVQGDIFRSKLKNRPSSEGSINK [W2I]	2.51
LMVQGDIFRSKLKNRPSSEGSINK [W2M]	3.48
LKVQGDIFRSKLKNRPSSEGSINK [W2K]	3.74
LPVQGDIFRSKLKNRPSSEGSINK [W2P]	4.26
LNVQGDIFRSKLKNRPSSEGSINK [W2N]	4.07
LHVQGDIFRSKLKNRPSSEGSINK [W2H]	3.81
LCVQGDIFRSKLKNRPSSEGSINK [W2C]	3.8
LGVQGDIFRSKLKNRPSSEGSINK [W2G]	4.04
LQVQGDIFRSKLKNRPSSEGSINK [W2Q]	4.28
LFVQGDIFRSKLKNRPSSEGSINK [W2F]	3.07
LLVQGDIFRSKLKNRPSSEGSINK [W2L]	2.98
LDVQGDIFRSKLKNRPSSEGSINK [W2D]	4.4
LEVQGDIFRSKLKNRPSSEGSINK [W2E]	5.28
LAVQGDIFRSKLKNRPSSEGSINK [W2A]	4.05

Reference: the supplement of paper PMC10567573
